The source of these data is US20240402174A1 (Takeda / Millennium, published 2024).

A word on the EC50: it is the concentration at which the effect is half-maximal.

What all share (assay): multiplex microsphere immunoassay
In one experiment the target is T1, GII.4/Sydney VLP (norovirus …, UniProt P54635 1-538).
T1 construct: also called Hu/GII.4/Sydney/NSW0514/2012/AU
T1 chain: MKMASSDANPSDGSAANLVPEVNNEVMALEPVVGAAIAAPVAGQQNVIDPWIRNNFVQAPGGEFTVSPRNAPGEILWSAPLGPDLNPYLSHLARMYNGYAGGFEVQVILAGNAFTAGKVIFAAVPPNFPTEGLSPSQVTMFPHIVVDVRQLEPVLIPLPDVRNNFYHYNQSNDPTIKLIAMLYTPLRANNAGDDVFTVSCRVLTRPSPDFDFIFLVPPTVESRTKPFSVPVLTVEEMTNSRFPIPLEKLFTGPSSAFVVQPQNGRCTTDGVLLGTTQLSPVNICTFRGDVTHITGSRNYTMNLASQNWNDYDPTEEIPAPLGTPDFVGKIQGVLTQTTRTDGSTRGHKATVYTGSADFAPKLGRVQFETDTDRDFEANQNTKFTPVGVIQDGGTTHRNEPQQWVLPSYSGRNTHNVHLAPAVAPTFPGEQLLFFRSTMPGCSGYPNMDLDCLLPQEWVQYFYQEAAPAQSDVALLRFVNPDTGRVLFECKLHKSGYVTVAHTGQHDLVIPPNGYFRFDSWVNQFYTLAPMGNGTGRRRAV

The target of a further experiment is T2, GII.4/New Orleans VLP (norovirus Hu/GII.4/New …, UniProt P54635 1-539).
T2 construct: also called Hu/GII.4/New Orleans1805/2009/USA
T2 chain: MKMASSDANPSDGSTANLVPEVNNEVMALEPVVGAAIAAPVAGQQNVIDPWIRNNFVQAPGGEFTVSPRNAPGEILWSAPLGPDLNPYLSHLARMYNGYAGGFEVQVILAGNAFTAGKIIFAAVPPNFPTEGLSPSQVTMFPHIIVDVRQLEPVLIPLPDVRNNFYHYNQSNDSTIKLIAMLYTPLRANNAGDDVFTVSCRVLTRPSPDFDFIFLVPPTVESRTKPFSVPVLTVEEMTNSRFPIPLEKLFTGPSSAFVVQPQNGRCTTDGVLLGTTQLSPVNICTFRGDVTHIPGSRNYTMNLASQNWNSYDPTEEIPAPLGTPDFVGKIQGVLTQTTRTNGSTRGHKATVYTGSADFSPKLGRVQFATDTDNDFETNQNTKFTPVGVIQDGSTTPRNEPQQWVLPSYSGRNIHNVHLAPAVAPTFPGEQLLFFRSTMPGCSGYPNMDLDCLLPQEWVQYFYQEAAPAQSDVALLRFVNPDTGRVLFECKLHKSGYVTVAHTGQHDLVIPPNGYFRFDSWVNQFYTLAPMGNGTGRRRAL

Another experiment deals with T3, GII.3 VLP (norovirus Hu/GII.3/NIHIC8.1/2011/USA).
T3 construct: also called Hu/GII.3/NIHIC8.1/2011/USA
T3 chain: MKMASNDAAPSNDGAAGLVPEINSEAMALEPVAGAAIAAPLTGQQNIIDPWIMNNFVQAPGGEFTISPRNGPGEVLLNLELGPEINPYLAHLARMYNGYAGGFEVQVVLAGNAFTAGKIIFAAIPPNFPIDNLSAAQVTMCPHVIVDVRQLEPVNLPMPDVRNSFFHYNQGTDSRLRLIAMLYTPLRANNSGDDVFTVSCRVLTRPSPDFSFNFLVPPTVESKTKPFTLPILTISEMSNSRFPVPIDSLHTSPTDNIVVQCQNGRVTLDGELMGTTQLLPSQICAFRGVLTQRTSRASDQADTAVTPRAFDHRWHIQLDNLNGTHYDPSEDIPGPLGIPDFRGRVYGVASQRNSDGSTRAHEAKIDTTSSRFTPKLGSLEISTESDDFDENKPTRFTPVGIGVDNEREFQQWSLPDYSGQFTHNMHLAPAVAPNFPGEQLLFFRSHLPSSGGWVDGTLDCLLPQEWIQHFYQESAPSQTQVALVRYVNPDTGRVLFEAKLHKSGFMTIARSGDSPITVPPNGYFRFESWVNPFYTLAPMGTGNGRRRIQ

Another experiment deals with T4, GI.3 VLP (norovirus Hu/GI.3/JKPG_883/SWE/2007).
T4 construct: also called GI.3 Sweden
T4 chain: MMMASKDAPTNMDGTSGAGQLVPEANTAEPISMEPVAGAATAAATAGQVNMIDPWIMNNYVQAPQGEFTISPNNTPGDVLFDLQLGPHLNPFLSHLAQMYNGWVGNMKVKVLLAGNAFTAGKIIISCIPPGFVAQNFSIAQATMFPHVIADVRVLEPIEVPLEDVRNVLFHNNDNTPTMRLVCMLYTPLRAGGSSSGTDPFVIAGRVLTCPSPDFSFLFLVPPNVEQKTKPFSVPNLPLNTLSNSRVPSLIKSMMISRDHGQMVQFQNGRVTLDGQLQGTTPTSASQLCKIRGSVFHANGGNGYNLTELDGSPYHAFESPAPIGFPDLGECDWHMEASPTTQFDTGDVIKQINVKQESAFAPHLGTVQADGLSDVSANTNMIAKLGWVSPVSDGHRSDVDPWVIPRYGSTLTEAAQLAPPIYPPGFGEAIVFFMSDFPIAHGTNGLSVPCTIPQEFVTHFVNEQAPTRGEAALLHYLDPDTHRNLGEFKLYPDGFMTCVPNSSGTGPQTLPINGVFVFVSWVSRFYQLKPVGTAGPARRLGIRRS

For another experiment, the target named is T5, GI.6 VLP (norovirus Hu/GI.6/TCH-099/USA/2003).
T5 construct: also called GI.6 USA
T5 chain: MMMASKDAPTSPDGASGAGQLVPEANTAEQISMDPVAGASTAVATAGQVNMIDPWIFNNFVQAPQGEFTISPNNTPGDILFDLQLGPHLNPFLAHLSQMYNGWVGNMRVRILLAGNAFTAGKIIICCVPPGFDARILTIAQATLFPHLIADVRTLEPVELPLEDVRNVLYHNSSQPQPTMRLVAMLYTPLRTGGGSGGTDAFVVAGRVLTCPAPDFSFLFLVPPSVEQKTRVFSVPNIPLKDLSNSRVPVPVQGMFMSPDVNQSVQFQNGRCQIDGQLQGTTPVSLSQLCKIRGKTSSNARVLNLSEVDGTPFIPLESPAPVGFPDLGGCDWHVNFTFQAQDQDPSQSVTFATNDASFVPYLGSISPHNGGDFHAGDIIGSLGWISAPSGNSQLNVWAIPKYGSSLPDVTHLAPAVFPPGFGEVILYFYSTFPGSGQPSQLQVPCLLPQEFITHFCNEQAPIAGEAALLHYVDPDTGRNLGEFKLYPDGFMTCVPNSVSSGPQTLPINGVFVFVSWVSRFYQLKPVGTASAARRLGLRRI

B1: human mAb 1431 (antibody, V domains shown)
VH: QVQLVQSGGGLVQPGGSLRLSCAASGFAFSNHGMHWVRQAPGKGLEWLSYISGSTGAIHYANSVKGRFTISRDNARNSLDLQMNSLGDEDTAVYYCARDGPRPDGTGYAGPSNDYWGQGTLVSVSS
VL: EIVLTQSPASLSLSPGERATLSCKASRSISIYLAWYQQKPGQAPRLLIYDASYRAIGIPARFSGSGSGTDFTLTISNLEPEDFAVYYCQHRSSWPALTFGGGTKVEI
notes: also called A1431
With B1, the values for the 50% effective concentration (EC50) with GII.4/Sydney VLP and in the experiment with GII.4/New Orleans VLP were 0.026 µg/mL and 0.018 µg/mL, respectively. Further, the binding result with GII.3 VLP was “no binding”.

B2: human mAb 1431 (antibody, V domains shown)
VH: QVQLVQSGGGLVQPGGSLRLSCAASGFAFSNHGMHWVRQAPGKGLEWLSYISGSTGAIHYANSVKGRFTISRDNARNSLDLQMNSLGDEDTAVYYCARDGPRPDGTGYAGPSNDYWGQGTLVSVSS
VL: EIVLTQSPASLSLSPGERATLSCKASRSISIYLAWYQQKPGQAPRLLIYDASYRAIGIPARFSGSGSGTDFTLTISNLEPEDFAVYYCQHRSSWPALTFGGGTKVEI
notes: also called A1431
Regarding B2, the binding result with GI.3 VLP and in the experiment with GI.6 VLP was “no binding” throughout.

B3: human mAb 1227 (antibody, V domains shown)
VH: QVQLVQSGGGMVQPGGSLSLSCAASGFTLSNYAMTWVRQAPGKGLEWVSSIGGSGGTTYYADSVKGRFTISRDSSMNTLYLQMSNLRAGDTAVYYCAKDKTRTLRLGYSGMDVWGQGTTVTVSS
VL: DIRLTQSPSSLSASVGDRVTITCRASQSISSYLNWYQQKPGKAPDLLIYGASSLQSGVPSRFSGSGSGTDFTLTISSLQPEDFGNYYCQQSFSTPRTFGQGTKVEL
notes: also called A1227
As for B3, the results for the EC50 with GII.4/Sydney VLP, with GII.4/New Orleans VLP and in the experiment with GII.3 VLP were 0.012 µg/mL, 0.007 µg/mL and 0.006 µg/mL, respectively.
